This data set deals with T1, TnsD C152S (Escherichia coli (transposon Tn7), UniProt P13991 1-508, C152S).
T1 sequence: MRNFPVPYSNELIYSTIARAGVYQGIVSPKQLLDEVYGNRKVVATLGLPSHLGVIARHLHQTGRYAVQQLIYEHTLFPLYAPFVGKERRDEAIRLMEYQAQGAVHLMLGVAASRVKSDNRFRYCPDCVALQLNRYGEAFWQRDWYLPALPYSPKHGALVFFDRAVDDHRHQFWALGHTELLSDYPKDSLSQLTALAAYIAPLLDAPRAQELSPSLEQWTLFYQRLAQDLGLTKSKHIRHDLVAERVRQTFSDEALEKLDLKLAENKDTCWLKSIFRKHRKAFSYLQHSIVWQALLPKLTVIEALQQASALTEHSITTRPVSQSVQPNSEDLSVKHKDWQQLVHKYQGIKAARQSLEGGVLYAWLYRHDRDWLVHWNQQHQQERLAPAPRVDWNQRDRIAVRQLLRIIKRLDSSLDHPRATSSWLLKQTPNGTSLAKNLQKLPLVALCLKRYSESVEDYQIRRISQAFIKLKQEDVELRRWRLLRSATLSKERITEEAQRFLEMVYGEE
In words: EMSA; Gel-shift buffer not given (as described in ref. 6); TnsD stored in 500 mM KCl, 50 mM Tris-HCl pH 8.0, 1 mM EDTA, 2 mM DTT, 25% glycerol. The settings on record: protein: recombinant; tags: intein-chitin tag, cleaved with DTT. Background: A gel shift assay detects complexes by their altered migration in electrophoresis.

B1: attTn7 wt (+23 to +58) (dsDNA)
DNA 1: CCGCGTAACCTGGCAAAATCGGTTACGGTTGAGTAA
DNA 2: TTACTCAACCGTAACCGATTTTGCCAGGTTACGCGG
B1: the binding signal is 0.05 relative to wt.

These data come from article PMC2918618, “Characterization of the TnsD-attTn7 complex that promotes site-specific insertion of Tn7” (Mobile DNA, 2010).
